For series [1], the target named is T1, Lin28B ZKD (Homo sapiens, UniProt Q6ZN17 110-174).
T1 sequence: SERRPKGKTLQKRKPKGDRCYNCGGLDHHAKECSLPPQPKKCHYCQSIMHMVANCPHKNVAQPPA
The series can be described thus: fluorescence polarization; 1 nM probe, 1 nM-50 uM protein; dose-dependent increase; EMSA: 20 mM HEPES-NaOH pH 7.4, 2 mM DTT, 3 mM MgCl2, 0.05% NP-40, protease inhibitors, 0.1 ug poly[dI:dC], 30 min 37 C (Methods 300 nM probe, legends 10 nM); FP: 30 uL, room temperature, 20 min, buffer not stated. The following applies: protein: recombinant; tags: His.

Series [2] has as its target T1, Lin28B ZKD. Briefly: competition; fluorescence polarization; 1 nM-50 uM unlabeled oligo vs 1 nM FAM probe, 10 uM protein; dose-dependent reduction; EMSA: 20 mM HEPES-NaOH pH 7.4, 2 mM DTT, 3 mM MgCl2, 0.05% NP-40, protease inhibitors, 0.1 ug poly[dI:dC], 30 min 37 C (Methods 300 nM probe, legends 10 nM); FP: 30 uL, room temperature, 20 min, buffer not stated. The following applies: protein: recombinant; tags: His. (In general: Mobility shift assays separate free from complexed probe on a gel.)

The values that follow come from paper PMC9688808, “Discovery of Novel Lin28 Inhibitors to Suppress Cancer Cell Stemness” (Cancers, 2022).

With UUAGGGCACGAGAUUUUGCCCACAAGGAGUU (structured_RNA) [FAM-Let-7 probe], the binding result in the series with Lin28B ZKD [1] is “binds”.

With UUAGGGCACGAGAUUUUGCCCACAAGGAGUU (structured_RNA) [non-labeled Let-7 oligo (FP competitor)], in the series with Lin28B ZKD [2], the binding result was “binds”.
